Experimental data from patent US20220402985A1.
Several values for one entry are separate records, joined by “and”; a condition that tells them apart may be missing. Identical values can stand only once.

Tests used:
[1] = molecular target: ErbB3 on rat Schwann cells (rat) (UniProt Q62799); assay: cell-based or functional assay
[2] = molecular target: ErbB4 on neonatal rat cardiomyocytes (rat) (UniProt Q62956); assay: cell-based or functional assay
ErbB4 on neonatal rat cardiomyocytes (rat), sequence (Q62956 26-1308): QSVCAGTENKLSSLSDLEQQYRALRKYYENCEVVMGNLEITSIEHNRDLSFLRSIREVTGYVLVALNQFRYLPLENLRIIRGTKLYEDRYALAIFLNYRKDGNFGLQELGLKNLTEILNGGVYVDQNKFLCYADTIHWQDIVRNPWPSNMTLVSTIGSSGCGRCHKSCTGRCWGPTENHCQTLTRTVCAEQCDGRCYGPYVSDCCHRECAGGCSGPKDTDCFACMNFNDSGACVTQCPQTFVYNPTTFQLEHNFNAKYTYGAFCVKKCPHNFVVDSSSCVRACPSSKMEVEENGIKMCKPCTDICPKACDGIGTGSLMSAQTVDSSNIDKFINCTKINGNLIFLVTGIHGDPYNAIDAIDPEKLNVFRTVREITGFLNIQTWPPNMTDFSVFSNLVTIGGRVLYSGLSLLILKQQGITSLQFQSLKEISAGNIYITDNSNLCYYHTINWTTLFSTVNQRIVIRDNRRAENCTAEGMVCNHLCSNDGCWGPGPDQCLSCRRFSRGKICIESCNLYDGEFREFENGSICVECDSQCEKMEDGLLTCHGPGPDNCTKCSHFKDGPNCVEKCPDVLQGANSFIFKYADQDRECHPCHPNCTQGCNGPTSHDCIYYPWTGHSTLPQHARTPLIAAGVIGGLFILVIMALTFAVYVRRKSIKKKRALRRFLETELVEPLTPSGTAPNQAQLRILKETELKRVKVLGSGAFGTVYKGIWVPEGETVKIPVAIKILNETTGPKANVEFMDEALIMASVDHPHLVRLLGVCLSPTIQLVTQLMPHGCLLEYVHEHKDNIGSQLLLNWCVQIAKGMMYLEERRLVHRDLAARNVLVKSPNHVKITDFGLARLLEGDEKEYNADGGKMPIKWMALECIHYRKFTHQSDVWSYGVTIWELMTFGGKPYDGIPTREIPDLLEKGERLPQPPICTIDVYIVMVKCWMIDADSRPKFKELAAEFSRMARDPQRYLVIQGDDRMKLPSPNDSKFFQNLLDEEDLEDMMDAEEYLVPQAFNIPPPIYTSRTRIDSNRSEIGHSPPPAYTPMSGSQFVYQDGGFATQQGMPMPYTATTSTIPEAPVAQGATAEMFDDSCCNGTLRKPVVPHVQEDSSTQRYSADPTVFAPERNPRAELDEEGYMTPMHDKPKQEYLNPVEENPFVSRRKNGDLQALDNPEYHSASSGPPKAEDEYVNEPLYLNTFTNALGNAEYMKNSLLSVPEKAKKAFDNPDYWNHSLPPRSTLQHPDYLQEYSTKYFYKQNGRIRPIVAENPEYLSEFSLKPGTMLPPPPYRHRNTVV

ErbB3 on rat Schwann cells (rat), sequence (Q62799 20-1339): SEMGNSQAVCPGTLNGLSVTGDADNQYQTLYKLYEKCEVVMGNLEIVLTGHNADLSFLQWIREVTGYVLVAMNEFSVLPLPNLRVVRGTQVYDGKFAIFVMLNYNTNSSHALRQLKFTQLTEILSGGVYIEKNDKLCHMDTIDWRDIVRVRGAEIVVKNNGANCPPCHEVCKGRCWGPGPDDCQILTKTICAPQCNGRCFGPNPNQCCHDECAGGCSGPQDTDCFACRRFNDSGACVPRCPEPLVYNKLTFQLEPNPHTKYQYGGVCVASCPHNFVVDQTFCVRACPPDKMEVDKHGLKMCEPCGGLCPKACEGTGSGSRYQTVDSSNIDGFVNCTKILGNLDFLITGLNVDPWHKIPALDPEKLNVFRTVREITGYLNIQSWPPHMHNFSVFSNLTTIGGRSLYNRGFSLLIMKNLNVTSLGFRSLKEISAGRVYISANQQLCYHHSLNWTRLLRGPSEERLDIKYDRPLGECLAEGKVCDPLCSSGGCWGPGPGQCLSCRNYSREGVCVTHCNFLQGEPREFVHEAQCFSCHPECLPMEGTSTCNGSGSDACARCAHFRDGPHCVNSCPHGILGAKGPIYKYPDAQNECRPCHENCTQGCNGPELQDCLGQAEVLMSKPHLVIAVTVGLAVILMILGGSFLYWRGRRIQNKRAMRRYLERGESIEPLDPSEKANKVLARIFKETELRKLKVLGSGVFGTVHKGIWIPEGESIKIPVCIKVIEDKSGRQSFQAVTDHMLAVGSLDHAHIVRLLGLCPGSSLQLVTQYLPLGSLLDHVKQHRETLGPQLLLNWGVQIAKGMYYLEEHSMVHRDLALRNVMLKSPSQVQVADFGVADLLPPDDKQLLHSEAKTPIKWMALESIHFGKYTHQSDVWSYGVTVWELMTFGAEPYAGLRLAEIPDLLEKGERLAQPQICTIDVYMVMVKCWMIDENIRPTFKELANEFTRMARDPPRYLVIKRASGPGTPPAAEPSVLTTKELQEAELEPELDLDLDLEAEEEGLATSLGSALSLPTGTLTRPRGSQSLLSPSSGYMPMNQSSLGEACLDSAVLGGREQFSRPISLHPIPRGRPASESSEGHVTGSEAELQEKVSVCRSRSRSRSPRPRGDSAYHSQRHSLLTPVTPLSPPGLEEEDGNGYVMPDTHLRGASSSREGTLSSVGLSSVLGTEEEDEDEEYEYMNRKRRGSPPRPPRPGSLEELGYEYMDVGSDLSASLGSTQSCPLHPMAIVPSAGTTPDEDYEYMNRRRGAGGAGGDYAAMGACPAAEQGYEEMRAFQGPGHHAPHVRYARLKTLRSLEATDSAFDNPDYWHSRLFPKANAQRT

| Schwann cells (SC) (ErbB3) Avg EC50 [1] | CM % Agonism AVG [2] [%] | Cardiomyocyte (CM) (ErbB4) Avg EC50 [2] | Selectivity SC/CM [2] | Binder |
| --- | --- | --- | --- | --- |
| 510 nM | 28 | 2.22 nM | 229 | huNRG1(S177-Q237)(NRGE1P)::GG::huFcSEFL2 (Pb) (Fc fusion) SHLVKCAESHKSFCVNGGECFMIEGPSNPSRYLCKCPNEFTGDRCQDFFMASFYKAEELYQGGDKTHTCPPCPAPELLGGPSVFLFPPKPKDTLMISRTPEVTCVVVDVSHEDPEVKFNWYVDGVEVHNAKTKPCEEQYGSTYRCVSVLTVLHQDWLNGKEYKCKVSNKALPAPIEKTISKAKGQPREPQVYTLPPSREEMTKNQVSLTCLVKGFYPSDIAVEWESNGQPENNYKTTPPVLDSDGSFFLYSKLTVDKSRWQQGNVFSCSVMHEALHNHYTQKSLSLSPGK |
| 1000 nM | – | 0.619 nM | 1620 | huNRG1(S177-Q237)(1A7)::GG::huFcSEFL2 (Pb) (Fc fusion) SHLVKCAERDKSFCVNGGECYVIEHLSNPSRFLCKCPNEFTGDRCQKDFMASFYKAEELYQGGDKTHTCPPCPAPELLGGPSVFLFPPKPKDTLMISRTPEVTCVVVDVSHEDPEVKFNWYVDGVEVHNAKTKPCEEQYGSTYRCVSVLTVLHQDWLNGKEYKCKVSNKALPAPIEKTISKAKGQPREPQVYTLPPSREEMTKNQVSLTCLVKGFYPSDIAVEWESNGQPENNYKTTPPVLDSDGSFFLYSKLTVDKSRWQQGNVFSCSVMHEALHNHYTQKSLSLSPGK |
| 47.9 nM | – | 0.722 nM | 66 | huNRG1(S177-Q237)(1A12)::GG::huFcSEFL2 (Pb) (Fc fusion) SHLVKCAEKHKSFCVNGGECYVVERPSIPSRYLCKCPNEFTGDRCQKFFMASFYKAEELYQGGDKTHTCPPCPAPELLGGPSVFLFPPKPKDTLMISRTPEVTCVVVDVSHEDPEVKFNWYVDGVEVHNAKTKPCEEQYGSTYRCVSVLTVLHQDWLNGKEYKCKVSNKALPAPIEKTISKAKGQPREPQVYTLPPSREEMTKNQVSLTCLVKGFYPSDIAVEWESNGQPENNYKTTPPVLDSDGSFFLYSKLTVDKSRWQQGNVFSCSVMHEALHNHYTQKSLSLSPGK |
| 1000 nM | < 50 | 1.92 nM | 520 | huNRG1(S177-Q237)(1B9)::GG::huFcSEFL2 (Pb) (Fc fusion) SHLVKCAEKHKSFCVNGGECFMVEDLSIPSRYLCKCPNEFTGDRCQDVFMASFYKAEELYQGGDKTHTCPPCPAPELLGGPSVFLFPPKPKDTLMISRTPEVTCVVVDVSHEDPEVKFNWYVDGVEVHNAKTKPCEEQYGSTYRCVSVLTVLHQDWLNGKEYKCKVSNKALPAPIEKTISKAKGQPREPQVYTLPPSREEMTKNQVSLTCLVKGFYPSDIAVEWESNGQPENNYKTTPPVLDSDGSFFLYSKLTVDKSRWQQGNVFSCSVMHEALHNHYTQKSLSLSPGK |
| > 10000 nM and 10000 nM | 78 | 1.62 nM and 0.772 nM | > 10000 | huNRG1(S177-Q237)(1D3)::GG::huFcSEFL2 (Pb) (Fc fusion) SHLVKCGENDKSFCVNGGECFVIEDPSIPSRYLCKCPNEFTGDRCQNDFLASFYKAEELYQGGDKTHTCPPCPAPELLGGPSVFLFPPKPKDTLMISRTPEVTCVVVDVSHEDPEVKFNWYVDGVEVHNAKTKPCEEQYGSTYRCVSVLTVLHQDWLNGKEYKCKVSNKALPAPIEKTISKAKGQPREPQVYTLPPSREEMTKNQVSLTCLVKGFYPSDIAVEWESNGQPENNYKTTPPVLDSDGSFFLYSKLTVDKSRWQQGNVFSCSVMHEALHNHYTQKSLSLSPGK |
| 10000 nM | – | 0.996 nM | > 10000 | huNRG1(S177-Q237)(1B4)::GG::huFcSEFL2 (Pb) (Fc fusion) SHLVKCGERDKTFCVNGGECFMIEDSSNPSRYLCKCPNEFTGDRCQKDFMASFYKAEELYQGGDKTHTCPPCPAPELLGGPSVFLFPPKPKDTLMISRTPEVTCVVVDVSHEDPEVKFNWYVDGVEVHNAKTKPCEEQYGSTYRCVSVLTVLHQDWLNGKEYKCKVSNKALPAPIEKTISKAKGQPREPQVYTLPPSREEMTKNQVSLTCLVKGFYPSDIAVEWESNGQPENNYKTTPPVLDSDGSFFLYSKLTVDKSRWQQGNVFSCSVMHEALHNHYTQKSLSLSPGK |
| 87 nM | – | 1.1 nM | 79 | huNRG1(S177-Q237)(1C11)::GG::huFcSEFL2 (Pb) (Fc fusion) SHLVKCGEKEKTFCVNGGECYMVERPSIPSRFLCKCPNEFTGDRCQKFFMASFYKAEELYQGGDKTHTCPPCPAPELLGGPSVFLFPPKPKDTLMISRTPEVTCVVVDVSHEDPEVKFNWYVDGVEVHNAKTKPCEEQYGSTYRCVSVLTVLHQDWLNGKEYKCKVSNKALPAPIEKTISKAKGQPREPQVYTLPPSREEMTKNQVSLTCLVKGFYPSDIAVEWESNGQPENNYKTTPPVLDSDGSFFLYSKLTVDKSRWQQGNVFSCSVMHEALHNHYTQKSLSLSPGK |
| 3.62 nM | 97.5 | 0.587 nM | 6.17 | huNRG1(S177-F229) 6xHis (ligand) SHLVKCAEKEKTFCVNGGECFMVKDLSNPSRYLCKCPNEFTGDRCQNYVMASFGGGGEGGGGAGGGGHHHHHH |
| 9.11 nM | – | 0.133 nM | 69 | huNRG1(S177-Q237)(1A1)::GG::huFcSEFL2 (Pb) (Fc fusion) SHLVKCGESEKSFCVNGGECYVIEDSSIPSRFLCKCPNEFTGDRCQNVFLASFYKAEELYQGGDKTHTCPPCPAPELLGGPSVFLFPPKPKDTLMISRTPEVTCVVVDVSHEDPEVKFNWYVDGVEVHNAKTKPCEEQYGSTYRCVSVLTVLHQDWLNGKEYKCKVSNKALPAPIEKTISKAKGQPREPQVYTLPPSREEMTKNQVSLTCLVKGFYPSDIAVEWESNGQPENNYKTTPPVLDSDGSFFLYSKLTVDKSRWQQGNVFSCSVMHEALHNHYTQKSLSLSPGK |
| > 10000 nM | 83.4 | 0.34 nM | > 10000 | huNRG1(S177-F229)(NRGE1D)::1KmodT482V, M493L)::huFcSEFL2 (Pb) (Fc fusion) SHLVKCGESHKSFCVNGGECYMVEGSSIPSRYLCKCPNEFTGDRCQEDFMASFGSGSATGGSGSVASSGSGSATHLDKTHTCPPCPAPELLGGPSVFLFPPKPKDTLMISRTPEVTCVVVDVSHEDPEVKFNWYVDGVEVHNAKTKPCEEQYGSTYRCVSVLTVLHQDWLNGKEYKCKVSNKALPAPIEKTISKAKGQPREPQVYTLPPSREEMTKNQVSLTCLVKGFYPSDIAVEWESNGQPENNYKTTPPVLDSDGSFFLYSKLTVDKSRWQQGNVFSCSVMHEALHNHYTQKSLSLSPGK |
| 10000 nM | 106 | 1.44 nM | > 10000 | huNRG1(S177-F229)(NRGE1C) 6xHis (ligand) SHLVKCGEKHKSFCVNGGECFMIEGPSNPSRYLCKCPNEFTGDRCQEDFMASFGGGGEGGGGAGGGGHHHHHH |
| 10000 nM | 91.8 | 0.825 nM | > 10000 | huNRG1(S177-F229)(NRGE1C) (E47K_D48T_F49S_M50L) 6xHis (ligand) SHLVKCGEKHKSFCVNGGECFMIEGPSNPSRYLCKCPNEFTGDRCQKTSLASFGGGGEGGGGAGGGGHHHHHH |
| 10000 nM | 106 | 0.712 nM | > 10000 | huNRG1(S177-F229)(NRGE1C) (D48T_F49Q_M50I) 6xHis (ligand) SHLVKCGEKHKSFCVNGGECFMIEGPSNPSRYLCKCPNEFTGDRCQETQIASFGGGGEGGGGAGGGGHHHHHH |
| 10000 nM | 96.5 | 1.1 nM | > 10000 | huNRG1(S177-F229)(NRGE1C) (E47A_D48P_F49H_M50I) 6xHis (ligand) SHLVKCGEKHKSFCVNGGECFMIEGPSNPSRYLCKCPNEFTGDRCQAPHIASFGGGGEGGGGAGGGGHHHHHH |
| 10000 nM | 87.5 | 0.58 nM | > 10000 | huNRG1(S177-F229)(NRGE1C) (E47S_D48T_F49R_M50V) 6xHis (ligand) SHLVKCGEKHKSFCVNGGECFMIEGPSNPSRYLCKCPNEFTGDRCQSTRVASFGGGGEGGGGAGGGGHHHHHH |
| 10000 nM | 99.8 | 0.33 nM | > 10000 | huNRG1(S177-F229)(NRGE1D) (E47T_D48S_F49L_M50L) 6xHis (ligand) SHLVKCGESHKSFCVNGGECYMVEGSSIPSRYLCKCPNEFTGDRCQTSLLASFGGGGEGGGGAGGGGHHHHHH |
| 10000 nM | 85.9 | 0.695 nM | > 10000 | huNRG1(S177-F229)(NRGE1C) (E47S_D48A_F49L_M50T) 6xHis (ligand) SHLVKCGEKHKSFCVNGGECFMIEGPSNPSRYLCKCPNEFTGDRCQSALTASFGGGGEGGGGAGGGGHHHHHH |
| 10000 nM | 98 | 0.224 nM | > 10000 | huNRG1(S177-F229)(NRGE1D) (E47V_D48T_F49R_M50L) 6xHis (ligand) SHLVKCGESHKSFCVNGGECYMVEGSSIPSRYLCKCPNEFTGDRCQVTRLASFGGGGEGGGGAGGGGHHHHHH |
| 10000 nM | 96 | 0.557 nM | > 10000 | huNRG1(S177-F229)(NRGE1D) (E47S_D48S_F49E_M50L) 6xHis (ligand) SHLVKCGESHKSFCVNGGECYMVEGSSIPSRYLCKCPNEFTGDRCQSSELASFGGGGEGGGGAGGGGHHHHHH |
| 17.2 nM | 91.7 | 0.311 nM | 55.4 | huNRG1(S177-F229)(NRGE1D) (E47K_D48L_F49D_M50I) 6xHis (ligand) SHLVKCGESHKSFCVNGGECYMVEGSSIPSRYLCKCPNEFTGDRCQKLDIASFGGGGEGGGGAGGGGHHHHHH |
| 10000 nM | 90.7 | 0.39 nM | > 10000 | huNRG1(S177-F229)(NRGE1D) 6xHis (ligand) SHLVKCGESHKSFCVNGGECYMVEGSSIPSRYLCKCPNEFTGDRCQEDFMASFGGGGEGGGGAGGGGHHHHHH |
